Test results reported in patent US20090124546A1 (EBERHARD KARLS UNIVERSITAET TUEBINGEN UNIVERSITAETSKILINIKUM, published 2009).

Target: the molecule itself
Assay: SDS-PAGE and Western blot of synthetic peptide (self-association)
Experimental: Western blot analysis. After physical exercise sweat of the forehead was collected and analyzed by Western blot as already described (Rieg, S. et al. 2006 J. Investig. Dermatol. 126:354-365). Briefly, sweat was centrifuged 3 min at 13,000 rpm (16,000×g) to remove particles and frozen. Then, 15-μl portions of the samples and 4 μg of the DCD peptides LEK-45 and DCD-1L dissolved in water were separated by sodium dodecyl sulfate-polyacrylamide gel electrophoresis (using 15% acrylamide with 0.05% bisacrylamide), transferred electrophoretically (1200 mA/h) onto polyvinylidene difluoride membrane sheets (Immobilon-PSQ; Millipore, Germany) with a tank type blotter and then blocked in 10% nonfat milk in PBS (pH 7.4) for 30 min at room temperature. After incubation with a rabbit polyclonal anti-DCD antibody (1:2,000) that detects the C terminus of DCD-1L overnight at 4° C., the membrane sheets were washed with phosphate buffer and incubated with an anti-rabbit secondary biotin-conjugated polyclonal antibody (1:1,500 in blocking solution). After washing in phosphate buffer the Streptavidin-AP-conjugate (Roche, Mannheim, Germany) was used for the detection of biotin-labeled secondary antibody. The membrane was immersed in CDP-Star solution (Western Lightning chemiluminescence reagents for AP; Roche) for 10 min and then exposed to X-ray film (Eastman Kodak, Rochester, N.Y.).

Protein | binding result
SSLLEKGLDGAKKAVGGLGKLGKDAVEDLESVGKGAVHDVKDVLDSVL (also called synthetic peptide DCD-1L) [DCD-1L] | binds
LEKGLDGAKKAVGGLGKLGKDAVEDLESVGKGAVHDVKDVLDSVL [LEK-45] | binds
